Key:
[1] = molecular target: integrin αvβ3 on cells (M21 human melanoma cells; human umbilical vein endothelial cells) (human) (UniProt P06756); assay: cell-based or functional assay
[2] = molecular target: T1, integrin αvβ3 (human vitronectin receptor), purified from human placenta (human, UniProt P06756 31-1048; P05106 27-788); assay: ELISA titration of bacterial cell lysate containing Fab on immobilized αvβ3, detection with goat anti-human kappa-alkaline phosphatase
T1 construct: mature; coated on ELISA plates or immobilized on a BIAcore chip; Biotinylated in capture lift and capture ELISA screens; also called avb3; αvβ3 receptor

[3] = molecular target: T1, integrin αvβ3 (human vitronectin …); assay: ELISA on immobilized αvβ3 incubated with 0.1 µg/ml biotinylated fibrinogen (the blocked ligand) and various concentrations of Fab for 3 h at 37 °C; bound fibrinogen detected with NeutrAvidin-alkaline phosphatase

T1 sequence (P06756 31-1048, form in doubt, chain 1 of 2): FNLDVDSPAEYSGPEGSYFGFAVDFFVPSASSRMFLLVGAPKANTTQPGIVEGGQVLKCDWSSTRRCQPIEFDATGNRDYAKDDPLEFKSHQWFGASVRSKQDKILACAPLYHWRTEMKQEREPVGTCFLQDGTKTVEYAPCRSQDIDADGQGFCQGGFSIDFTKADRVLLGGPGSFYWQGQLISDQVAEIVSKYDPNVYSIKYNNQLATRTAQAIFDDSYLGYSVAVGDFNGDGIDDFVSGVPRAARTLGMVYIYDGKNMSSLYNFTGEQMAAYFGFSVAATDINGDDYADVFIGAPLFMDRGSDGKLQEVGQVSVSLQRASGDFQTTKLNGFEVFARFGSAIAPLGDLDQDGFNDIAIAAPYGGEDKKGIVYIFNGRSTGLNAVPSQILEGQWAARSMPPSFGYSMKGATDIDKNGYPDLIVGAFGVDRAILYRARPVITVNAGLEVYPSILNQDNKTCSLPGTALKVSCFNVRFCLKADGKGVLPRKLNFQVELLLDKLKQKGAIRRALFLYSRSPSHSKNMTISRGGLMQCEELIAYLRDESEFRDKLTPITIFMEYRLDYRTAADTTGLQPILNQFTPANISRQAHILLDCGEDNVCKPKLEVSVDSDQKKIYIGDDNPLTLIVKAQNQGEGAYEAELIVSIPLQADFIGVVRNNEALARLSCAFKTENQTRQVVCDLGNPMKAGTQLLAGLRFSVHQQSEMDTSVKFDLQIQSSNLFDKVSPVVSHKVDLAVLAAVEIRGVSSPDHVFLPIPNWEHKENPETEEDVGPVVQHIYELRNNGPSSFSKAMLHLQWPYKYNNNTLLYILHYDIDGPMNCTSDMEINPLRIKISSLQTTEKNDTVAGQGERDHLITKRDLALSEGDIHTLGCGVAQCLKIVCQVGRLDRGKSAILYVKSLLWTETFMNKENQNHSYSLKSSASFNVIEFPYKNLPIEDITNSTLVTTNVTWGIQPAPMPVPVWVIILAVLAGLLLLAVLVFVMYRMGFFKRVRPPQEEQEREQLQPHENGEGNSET
T1 sequence (P05106 27-788, form in doubt, chain 2 of 2): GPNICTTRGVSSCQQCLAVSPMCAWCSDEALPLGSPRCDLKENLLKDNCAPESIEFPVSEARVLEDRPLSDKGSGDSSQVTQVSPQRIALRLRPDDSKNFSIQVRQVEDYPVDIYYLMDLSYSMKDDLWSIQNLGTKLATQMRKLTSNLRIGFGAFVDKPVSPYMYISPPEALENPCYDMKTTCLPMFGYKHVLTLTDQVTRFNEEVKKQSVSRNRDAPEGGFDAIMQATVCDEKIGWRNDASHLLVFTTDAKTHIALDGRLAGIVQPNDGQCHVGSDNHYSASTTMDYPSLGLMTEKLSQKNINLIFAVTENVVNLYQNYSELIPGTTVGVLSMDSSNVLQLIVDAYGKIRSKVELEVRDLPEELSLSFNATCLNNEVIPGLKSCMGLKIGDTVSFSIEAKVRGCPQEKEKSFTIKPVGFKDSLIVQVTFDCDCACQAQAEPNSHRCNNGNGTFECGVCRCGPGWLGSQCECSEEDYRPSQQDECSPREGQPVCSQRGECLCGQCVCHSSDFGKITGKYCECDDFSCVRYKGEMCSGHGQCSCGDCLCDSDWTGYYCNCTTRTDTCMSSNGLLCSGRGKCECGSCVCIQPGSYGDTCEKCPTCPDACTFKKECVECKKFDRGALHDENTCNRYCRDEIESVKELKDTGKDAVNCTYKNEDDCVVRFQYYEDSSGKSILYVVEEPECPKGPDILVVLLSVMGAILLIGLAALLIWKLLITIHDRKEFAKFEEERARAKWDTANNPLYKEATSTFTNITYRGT
Chain of integrin αvβ3 on cells (M21 human melanoma cells; human umbilical vein endothelial cells) (human) (P06756 31-1048, chain 1 of 2): as the sequence (P06756 31-1048, form in doubt, chain 1 of 2) above
Chain of integrin αvβ3 on cells (M21 human melanoma cells; human umbilical vein endothelial cells) (human) (P05106 27-788, chain 2 of 2, further chain): as the sequence (P05106 27-788, form in doubt, chain 2 of 2) above

| Molecule | EC50 (read off the curve) [2] [µg/mL] | other results |
| --- | --- | --- |
| monoclonal antibody LM609 (murine IgG) | – | decrease in vitronectin-induced migration of human umbilical vein endothelial cells (transwell), antibody at 5 µg/ml [1]: 60% |
| LM609 grafted antibody Fab (parent molecule) (Fab, V domains shown, Fab expressed from M13 phage vector in E. coli, purified on protein A; also called LM609 grafted Fab; wild type) VH: QVQLVESGGGVVQPGRSLRLSCAASGFTFSSYDMSWVRQAPGKGLEWVAKVSSGGGSTYYLDTVQGRFTISRDNSKNTLYLQMNSLRAEDTAVYYCARHNYGSFAYWGQGTTVTVSS VL: EIVLTQSPATLSLSPGERATLSCQASQSISNHLHWYQQRPGQAPRLLIRYRSQSISGIPARFSGSGSGTDFTLTISSLEPEDFAVYYCQQSGSWPHTFGGGTKVEIK | ~0.4 | – |
| LM609 grafted antibody combinatorial clone C59 (Fab, V domains shown, Fab) VH: QVQLVESGGGVVQPGRSLRLSCAASGFTFSSYDMSWVRQAPGKGLEWVAKVSSGGGSTYYPDTVQGRFTISRDNSKNTLYLQMNSLRAEDTAVYYCARHNYGSFADWGQGTTVTVSS VL: EIVLTQSPATLSLSPGERATLSCQASQSISNFLHWYQQRPGQAPRLLIRYRSQSISGIPARFSGSGSGTDFTLTISSLEPEDFAVYYCQQSGSWPHTFGGGTKVEIK | – | IC50 (read off the curve) [3]: ~0.1 µg/mL |
| LM609 grafted antibody variant S102 (Fab, V domains shown, Fab; also called clone S102) VH: QVQLVESGGGVVQPGRSLRLSCAASGFTFSSYDMSWVRQAPGKGLEWVAKVSSGGGSTYYLDTVQGRFTISRDNSKNTLYLQMNSLRAEDTAVYYCARHNYGSFASWGQGTTVTVSS VL: EIVLTQSPATLSLSPGERATLSCQASQSISNHLHWYQQRPGQAPRLLIRYRSQSISGIPARFSGSGSGTDFTLTISSLEPEDFAVYYCQQSGSWPHTFGGGTKVEIK | ~0.1 | – |
